B1: OmpC (natural protein, E. coli, UniProt P06996 22-367, looked up)
chain: AEVYNKDGNKLDLYGKVDGLHYFSDNKDVDGDQTYMRLGFKGETQVTDQLTGYGQWEYQIQGNSAENENNSWTRVAFAGLKFQDVGSFDYGRNYGVVYDVTSWTDVLPEFGGDTYGSDNFMQQRGNGFATYRNTDFFGLVDGLNFAVQYQGKNGNPSGEGFTSGVTNNGRDALRQNGDGVGGSITYDYEGFGIGGAISSSKRTDAQNTAAYIGNGDRAETYTGGLKYDANNIYLAAQYTQTYNATRVGSLGWANKAQNFEAVAQYQFDFGLRPSLAYLQSKGKNLGRGYDDEDILKYVDVGATYYFNKNMSTYVDYKINLLDDNQFTRDAGINTDNIVALGLVYQF
notes: OmpC, outer membrane porin, E. coli; In the pull-down with MlaA variants some samples may have held OmpC-His (pDSW206ompC-His) in place of untagged OmpC; also called osmoporin OmpC; trimeric OmpC; source: E. coli BL21(λDE3) ΔompF::kan, over-expressed from pDSW206ompC; in DDM-solubilised lysate (pull-down) and purified with its partners (Ni-NTA, SEC)
B2: MlaA^Q205C (of the disulfide-trapped OmpC-MlaA-MlaC complex) (natural protein, E. coli, UniProt P76506 18-251, looked up)
chain: CASSGTDQQGRSDPLEGFNRTMYNFNFNVLDPYIVRPVAVAWRDYVPQPARNGLSNFTGNLEEPAVMVNYFLQGDPYQGMVHFTRFFLNTILGMGGFIDVAGMANPKLQRTEPHRFGSTLGHYGVGYGPYVQLPFYGSFTLRDDGGDMADGFYPVLSWLTWPMSVGKWTLEGIETRAQLLDSDGLLRCSSDPYIMVREAYFQRHDFIANGGELKPQENPNAQAIQDDLKDIDSE
modifications: engineered MlaA^Q205C-MlaC^V171C disulfide bond
notes: MlaA, OM lipoprotein, E. coli; also called MlaA^Cys

Experiments:
[1] = target: the molecule itself; experiment: SEC-MALS; SEC-purified disulfide-trapped OmpC3-MlaA^Cys-MlaC^Cys-His at 3 mg/ml, Superdex 200 Increase 10/300 GL, TBS pH 8.0 with 0.025% DDM, protein-conjugate analysis
OmpC [2] = target: B1; experiment: as above; conditions: both partners purified
OmpC [3] = target: B1; experiment: cryo-EM structure; disulfide-trapped OmpC3-MlaA^Q205C-MlaC^V171C-His in MSP2N2 nanodiscs with E. coli polar lipids; 2.9 Å overall, density of MlaC limited to 5.0-7.0 Å; conditions: both partners purified

Binder	stoichiometry N [1]	stoichiometry N (OmpC [2]) [per OmpC trimer]	stoichiometry N (OmpC [3]) [per OmpC trimer]
B1	3		
B2		~2	1 to 3

From article PMC10719372, “Molecular mechanism of phospholipid transport at the bacterial outer membrane interface” (Nature Communications, 2023)
